Patent EP4673749A1 (dated 2026)

T1: non-sense peptide GSPGKDGVRG
T1 construct: Control peptide
T1 peptide: GSPGKDGVRG

T2: Pro-C3 target sequence CPTGPQNYSP (C-terminal neo-epitope of PIIINP, residues 144-153 of the alpha1 chain) (human)
T2 construct: Synthetic peptide with free C-terminus (-COOH)
T2 peptide: CPTGPQNYSP

T3: elongated peptide CPTGPQNYSPQ (human)
T3 construct: the peptide tested is printed with Pro at that position
T3 peptide: CPTGPQNYSPQ

T4: PRO-C6 sequence KPGVISVMGT (last 10 amino acids of the type VI collagen alpha3 chain, 3168-3177)
T4 construct: also called selection peptide; immunogenic peptide
T4 peptide: KPGVISVMGT

T5: truncated peptide KPGVISVMG
T5 construct: Synthetic peptide, American Peptide Company
T5 peptide: KPGVISVMG

T6: elongated peptide KPGVISVMGTA
T6 construct: Synthetic peptide, Chinese Peptide Company
T6 peptide: KPGVISVMGTA


Tests used:
[1] = target: T1, non-sense peptide GSPGKDGVRG; assay: antibody characterization with peptides (ELISA, as previously described)
[2] = target: T2, Pro-C3 target sequence CPTGPQNYSP …; assay: as above
[3] = target: T3, elongated peptide CPTGPQNYSPQ; assay: as above
[4] = target: T4, PRO-C6 sequence KPGVISVMGT (last 10 …); assay: hybridoma clone screening with peptides
[5] = target: T5, truncated peptide KPGVISVMG; assay: hybridoma clone screening with peptides
[6] = target: T6, elongated peptide KPGVISVMGTA; assay: hybridoma clone screening with peptides

Binder	binding result [1]	binding result [2]	binding result [3]	binding result [4]	binding result [5]	binding result [6]
Pro-C3 monoclonal antibody (monoclonal antibody NB61N-62) (antibody, mouse IgG2a, kappa, V domains shown) VH: EVQLQQSGPEVLKPGASVKMSCKASGYTFINYVIHWLKQKAGQGPEWIGYMNPYNDVPKNNAKFRGKARLTSDRSSTTAYMELNSLTSEDSAVYYCARGGFFGPLSYWGQGTLVTVSA VL: DVLMTQTPLSLSVSLGDQASISCRSSQNIVYSNGDTYFEWYLQKPGQSPKLLIYKVSQRFSGVPDRFSGSGSGTDFTLKISRVETEDLGVYYCFQGAHDPPAFGGGTKLELKR	no binding	binds	no binding			
PRO-C6 monoclonal antibody 10A3 (antibody, mouse IgG1, kappa, V domains shown, Mouse IgG1 / kappa; also called monoclonal antibody specific for PRO-C6) VH: EVQLQQSGPVMVKPGTSVKTSCKASGYTFTDFNMNWVKQSHGKSLEWIGAINPHNGATSYNQKFSGKATLTVDKSSSTAYMELNSLTSDDSAVYYCARWGNGKNSWGQGTTLTVSS VL: DVVMTQTPLSLPVNLGDQASISCRSSQRIVHSNGITFLEWYLQKPGQSPKLLIYRVSNRFSGVPDRFSGSGSGTDFTLKISRVEAEDLGLYYCFQGSHVPLTFGAGTRLELKR				binds	no binding	no binding
